The target in the assay is CD19 on CD19 positive target cell lines (UniProt P15391). The experiment in a line: cell-based or functional assay.
CD19 on CD19 positive target cell lines, sequence (P15391 20-556 limits assumed): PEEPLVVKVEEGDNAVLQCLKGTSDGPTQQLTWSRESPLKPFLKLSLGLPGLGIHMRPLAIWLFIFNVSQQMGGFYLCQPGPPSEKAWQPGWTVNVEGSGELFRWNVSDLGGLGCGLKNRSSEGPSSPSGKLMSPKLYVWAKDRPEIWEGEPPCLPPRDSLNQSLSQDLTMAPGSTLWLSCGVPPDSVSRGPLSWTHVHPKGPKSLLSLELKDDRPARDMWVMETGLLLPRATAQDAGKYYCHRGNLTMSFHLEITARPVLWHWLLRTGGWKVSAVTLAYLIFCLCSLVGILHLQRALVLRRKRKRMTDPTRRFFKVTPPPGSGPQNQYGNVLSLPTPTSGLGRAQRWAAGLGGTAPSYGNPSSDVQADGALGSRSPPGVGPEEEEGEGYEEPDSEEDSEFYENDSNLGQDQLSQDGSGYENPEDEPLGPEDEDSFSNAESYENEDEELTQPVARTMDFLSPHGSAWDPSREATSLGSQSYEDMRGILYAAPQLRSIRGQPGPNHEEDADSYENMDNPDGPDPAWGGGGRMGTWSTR

For the substance “CD19 CAR as expressed on CART-19 cells (anti-CD19 FMC63 scFv, human CD8α hinge and transmembrane, human 4-1BB and CD3ζ) (receptor)”, the CD40L expression by CD4+ CAR T cells (flow cytometry, 24 hours of coincubation) (fold of the upregulation by CART-TnMUC1) was 2.

The values are drawn from patent US20210338733A1.
